Data set [1] concerns the target factor IIa (Homo sapiens, UniProt P00734). Put plainly: In vitro amidolytic anti-factor IIa activity in human plasma (S2238). As to conditions: human plasma pH 7.4, substrate S2238; read-out: Anti-IIa Human plasma pH 7.4 IC-50. Format: biochemical. Here is the method:
(§1) In Vitro Test for Determination of the Anti-Factor Xa and Factor IIa Activity in Human Plasma The anti-factor Xa and IIa activity of the tested compounds in human plasma were measured amidolytically using S2222 or S2238 (Chromogenix, Chromogenics Ltd, Molndal, Sweden) as substrates, respectively. The protcols were based on the method described by Teien and Lie. (Teien A N, Lie M. Evaluation of an amidolytic heparin assay method increased sensitivity by adding purified antithrombin III. Thromb. Res. 1977, 10: 399-410). Both activities are expressed in IC-50 (Mol/L).

Data set [2] in a line: Pharmacokinetics after s.c. administration in rats. The data set is classed as in vivo, male Wistar rats. As to conditions: rat, 100 nmol/kg s.c.; for AUC(0-inf) / MRT / Tmax / half-life / Cmax: male, Wistar, sc; for AUC(0-inf) / MRT / Tmax / half-life: plasma, 100 nmol/kg; for AUC(0-inf) / MRT / Tmax / half-life / Cmax / Cl / Vz: mean ± s.e.m.; for AUC(0-inf) / MRT / Tmax / Cmax / Cl / Vz: n = 3; for half-life: n = 3, read-out: T½ eli (converted); for pharmacokinetic behavior in rats, compound III compared with Org 42675: within the variability of the experiment. The procedure: 3.1 Pharmacokinetics The pharmacokinetic properties of Org 42675 and of compound III of this invention were studied in male Wistar rats of 300-400 gr. The rats were anaesthetized by inhalation of a mixture of O2/N2O/isoflurane, after which the right jugular vein was cannulated. The next day rats were treated s.c. with doses of 100 nmol/kg. After s.c. administration, blood was sampled at several time intervals. Then the blood was centrifuged after which the plasma was siphoned off and stored at −20° C. until use. The concentration of the tested compound was measured amidolytically using S-2222 or S-2238 as substrates (Chromogenix, Chromogenics Ltd, Molndal, Sweden) to determine the anti-Xa or anti-IIa activity, respectively. Both procedures were based on the methods of Teien and Lie (Teien A N, Lie M. Evaluation of an amidolytic heparin assay method increased sensitivity by adding purified antithrombin III. Thromb. Res. 1977, 10: 399-410). The concentrations in the obtained plasma samples were determined against a calibration curve which was made of the stock solution of the tested compound itself. The concentration in the samples was expressed in nmol/mL and the kinetic parameters were calculated with the noncompartment model of WinNonlin. (see FIG. 1)

The subject of data set [3] is factor Xa. Put plainly: In vitro amidolytic anti-factor Xa activity in human plasma (S2222). Format: biochemical. As to conditions: human plasma pH 7.4, substrate S2222; read-out: Anti-Xa Human plasma pH 7.4 IC-50. The procedure: as §1
Data set [4] is described as follows: Pharmacokinetics - neutralization experiment with avidin in rats. The data set is classed as in vivo. As to conditions: rat, 100 nmol/kg s.c. Here is the method:
3.2 Pharmacokinetics—Neutralization Experiment:
Rats were treated with compound III of this invention, or Org 42675 at a dose of 100 nmol/kg s.c. At t=2 h, a blood sample was taken and 10 mg/kg of Avidin (from egg white, Sigma) was administered i.v. to the rats treated with compound III of this invention or Org 42675. Blood was sampled at 0.17, 0.5, 1, 2, 3, and 7 hours subsequently. The blood was treated as described in the pharmacokinetic experiment and the concentration of the samples was determined by measuring the (residual) anti-Xa or anti-IIa activity. (see FIG. 2)

The conditions of data set [5]: in vivo; cited from earlier work.
The conditions of data set [6]: experimental thrombosis; cited from earlier work.
Where [7] appears, read: plasma level by anti-IIa activity.
Where [8] appears, read: plasma level by anti_Xa activity.

The term AUC(0-inf) denotes total exposure, with the tail of the curve extrapolated. The MRT is a mean duration of stay, worked out from the concentration-time curve. What is called Tmax is the time from dosing to the highest level. In general, Cmax refers to the maximum level reached in the sampled fluid or tissue.

Structures can show the parent of a compound that is named as a salt. Where two headings read alike, the source gives them in different places.

As for `COc1cc(C)c(S(=O)(=O)N[C@@H](CC(=O)NCCCC(=O)N[C@@H](CCCCNC(=O)CCCC[C@@H]2SC[C@@H]3NC(=O)N[C@@H]32)C(=O)NCCOCCOCCOCCO[C@H]2[C@H](OC)[C@@H](OC)[C@@H](O[C@H]3[C@H](OC)[C@@H](OC)[C@H](O[C@H]4[C@H](OS(=O)(=O)O)[C@@H](OS(=O)(=O)O)[C@@H](O[C@H]5[C@H](OC)[C@@H](OC)[C@H](O[C@H]6[C@H](OC)[C@@H](OS(=O)(=O)O)[C@@H](OC)O[C@@H]6COS(=O)(=O)O)O[C@H]5C(=O)O)O[C@@H]4COS(=O)(=O)O)O[C@@H]3C(=O)O)O[C@@H]2COS(=O)(=O)O)C(=O)N[C@H](Cc2ccc(C(=N)N)cc2)C(=O)N2CCCCC2)c(C)c1C` [Compound III, sodium salt], the IC50 in data set [1] turned out to be 16.2 nM. Further, in data set [2] (setting [7]), the AUC(0-inf) is 5 ± 0.6 µM·h, the MRT turned out to be 4.3 ± 0.3 h, the Tmax stood at 1.5 ± 0.5 h and the half-life was 2.7 ± 0.5 h. In data set [2] (setting [7]), this molecule had a Cl of 0.343 ± 0.04 mL/min/kg and a Vz of 0.078 ± 0.0042 L/kg. In addition, in data set [2] (setting [8]), the AUC(0-inf) turned out to be 7.2 ± 0.2 µM·h, the MRT is 5.9 ± 0.5 h, the Tmax worked out at 1.2 ± 0.4 h and the half-life was 3.9 ± 0.3 h. In data set [2] (setting [8]), this molecule displayed a Cmax of 1100 ± 100 nM, a Cl of 0.232 ± 0.0067 mL/min/kg and a Vz of 0.078 ± 0.0046 L/kg. In data set [2], the “pharmacokinetic behavior in rats, compound III compared with Org 42675” value was “the same pharmacokinetic behavior”. Further, in data set [3], the IC50 was determined as 0.843 nM. In addition, the “neutralization of antithrombotic activity ((residual) anti-Xa and anti-IIa activity) by avidin” value in data set [4] (avidin 10 mg/kg i.v.) is reported as “can be neutralized”.
In the case of `COc1cc(C)c(S(=O)(=O)N[C@@H](CC(=O)NCCCC(=O)NCCOCCOCCOCCO[C@H]2[C@H](OC)[C@@H](OC)[C@@H](O[C@H]3[C@H](OC)[C@@H](OC)[C@H](O[C@H]4[C@H](OS(=O)(=O)O)[C@@H](OS(=O)(=O)O)[C@@H](O[C@H]5[C@H](OC)[C@@H](OC)[C@H](O[C@H]6[C@H](OC)[C@@H](OS(=O)(=O)O)[C@@H](OC)O[C@@H]6COS(=O)(=O)O)O[C@H]5C(=O)O)O[C@@H]4COS(=O)(=O)O)O[C@@H]3C(=O)O)O[C@@H]2COS(=O)(=O)O)C(=O)N[C@H](Cc2ccc(C(=N)N)cc2)C(=O)N2CCCCC2)c(C)c1C` [Org 42675, reference compound], the IC50 in data set [1] stood at 17.8 nM. Further, the “prolonged half-life in comparison to the corresponding non-conjugated direct thrombin inhibitor derived from NAPAP” value in data set [5] is reported as 10 fold. For the same molecule, in data set [6], the “efficacy in comparison with argatroban, heparin and fondaparinux” value is listed as “improved efficacy”. Further, in data set [2] (setting [8]), the AUC(0-inf) stood at 5.3 ± 0.3 µM·h, the MRT stood at 4.6 ± 0.2 h, the Tmax was 2.3 ± 0.2 h and the half-life is 2.7 ± 0.2 h. In data set [2] (setting [8]), the Cmax worked out at 1000 ± 20 nM, the Cl is 0.318 ± 0.0183 mL/min/kg and the Vz amounted to 0.074 ± 0.0045 L/kg. Besides, the “pharmacokinetic behavior in rats, compound III compared with Org 42675” value in data set [2] was “the same pharmacokinetic behavior”. The IC50 in data set [3] was 0.767 nM. For the same molecule, the AUC(0-inf) in data set [4] (Wistar, plasma, subcutaneous, avidin 10 mg/kg i.v. at t = 2 h, calculated from T = 2 h, anti_Xa activity, mean ± s.e.m., n = 3) was 4.8 ± 0.6 µM·h. Further, in data set [4] (avidin 10 mg/kg i.v. at t = 2 h), the “pharmacokinetic behavior on addition of avidin” value is “not affected”.
